# Measurements: publication doi:10.1101/2022.11.08.515461 (bioRxiv, 2022)
# B1: Pac1-SNAP (natural protein)
# chain: MTNWQQQLPLTDTQKNELDKSVLRYLNWNYKQTVRHEHAQDYESVRHAIVTLSGFLLQESVDRQEFISNNDTSNESMVDIDELLLPKKWNSIVRLQKKIIELEQNTETLVSQIKDLNTQVSELAQFKPTTSNGTSAHNVLKWIPRNLPSCLINVESSVTSVKLHPNLPIVFVATDHGKLYAFDLFNYTIPLASLQSHTKAITSMDVLFTNYTNSSKKNYLVIVTASKDLQIHVFKWVSEECKFQQIRSLLGHEHIVSAVKIWQKNNDVHIASCSRDQTVKIWDFHNGWSLKTFQPHSQWVRSIDVLGDYIISGSHDTTLRLTHWPSGNGLSVGTGHEFPIEKVKFIHFIEDSPEIRFRTPSTDRYKNWGMQYCVSASRDRTIKIWEIPLPTLMAHRAPIPNPTDSNFRCVLTLKGHLSWVRDISIRGQYLFSCADDKSVRCWDLNTGQCLHVWEKLHTGFVNCLDLDVDFDSNVTPRQMMVTGGLDCKSNVFMR
# modifications: JF646-SNAP-tag ligand on the SNAP tag (fluorescent labelling)
# Molecular target: yeast dynein_(MOTOR)^MT-B (microtubule-bound mutant of the motor domain) (budding yeast | T. thermophilus) (UniProt P34945)
# Sequence (P34945 whole entry, change not shown, the tested form may be a part): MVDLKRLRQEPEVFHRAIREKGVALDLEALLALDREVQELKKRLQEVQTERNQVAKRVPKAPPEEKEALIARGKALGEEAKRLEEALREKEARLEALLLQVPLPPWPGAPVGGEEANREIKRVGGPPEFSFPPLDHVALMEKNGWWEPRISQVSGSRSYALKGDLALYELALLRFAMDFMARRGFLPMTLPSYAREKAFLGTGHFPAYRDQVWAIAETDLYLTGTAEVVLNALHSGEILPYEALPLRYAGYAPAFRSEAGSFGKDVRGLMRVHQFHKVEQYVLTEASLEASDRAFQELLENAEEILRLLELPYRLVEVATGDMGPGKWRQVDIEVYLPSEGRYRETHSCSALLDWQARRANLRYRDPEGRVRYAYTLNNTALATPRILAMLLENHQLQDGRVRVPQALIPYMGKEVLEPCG
# Experiment: mass photometry
binder,measurement,value
B1,stoichiometry N (Pac1 dimer per dynein (MOTOR) monomer),1
